Test results as given in publication PMC3711453.
Like-named read-outs stand apart in the source and are kept apart here.

Key:
[1] = target: T1, His6-MTSF1 (lacking first 146 aa) (Arabidopsis thaliana? (Arabidopsis, …, UniProt Q9M9X9 147-987)); test: EMSA
T1 sequence: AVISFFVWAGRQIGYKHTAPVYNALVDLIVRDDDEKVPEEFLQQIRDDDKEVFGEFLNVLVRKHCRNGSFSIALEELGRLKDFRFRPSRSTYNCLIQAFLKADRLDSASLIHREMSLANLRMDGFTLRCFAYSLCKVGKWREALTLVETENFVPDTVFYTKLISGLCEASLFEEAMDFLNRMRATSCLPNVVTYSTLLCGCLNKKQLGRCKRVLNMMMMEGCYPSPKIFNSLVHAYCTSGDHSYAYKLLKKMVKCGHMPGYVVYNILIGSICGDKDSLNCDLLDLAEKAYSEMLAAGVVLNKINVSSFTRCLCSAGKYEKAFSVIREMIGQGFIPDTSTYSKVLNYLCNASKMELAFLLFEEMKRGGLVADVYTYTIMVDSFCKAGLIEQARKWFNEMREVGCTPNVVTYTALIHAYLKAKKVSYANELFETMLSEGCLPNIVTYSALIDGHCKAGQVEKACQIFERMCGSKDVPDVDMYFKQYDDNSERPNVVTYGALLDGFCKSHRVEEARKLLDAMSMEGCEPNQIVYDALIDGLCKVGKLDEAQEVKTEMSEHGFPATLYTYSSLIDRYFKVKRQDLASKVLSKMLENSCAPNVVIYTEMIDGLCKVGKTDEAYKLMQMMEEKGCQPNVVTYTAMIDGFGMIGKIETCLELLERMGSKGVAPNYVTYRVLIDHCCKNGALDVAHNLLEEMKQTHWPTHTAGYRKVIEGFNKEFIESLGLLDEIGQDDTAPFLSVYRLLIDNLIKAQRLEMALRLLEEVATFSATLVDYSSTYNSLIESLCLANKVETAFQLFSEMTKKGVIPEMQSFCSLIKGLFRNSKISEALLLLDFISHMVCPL

[2] = target: T1, His6-MTSF1 (lacking first 146 aa); test: EMSA; remark: listed apart in the source

Binder	binding result [1]	binding result [2]
AACAUGGCAAAUUUCAUUGA (ssRNA) [3'ND4-2 (last 20 nt of nad4 coding sequence)]	no binding	
CAAAGAAAAGAAAAACGGGU (ssRNA) [3'ND4-3 (last 20 nt of nad4 3' UTR)]		binds
GAGGAAUCAGCAAAGAAAAGAAAAACGGGU (ssRNA) [3'ND4-1 (entire nad4 3' UTR, 30 nt)]	binds	
CAACAUCUUAAUGUGUAUUUGAGGAUAUUU (ssRNA) [3'ND4-4 (30 nt downstream of nad4 mRNA 3' end)]	no binding	
